Laboratory results reported in patent US6432645B1, “Beta subunits of Slo family potassium channels” (ICAgen Inc., priority 1999, dated 2002).

Assays:
Slo-1 [1] = molecular target: T1, Slo-1 (Homo sapiens, UniProt Q12791); experiment: Whole-cell voltage-clamp of membrane currents in HEK293 cells expressing Slo-1 alone; format: cell-based; set-up: expressed in transfected cells; host or cells: HEK293; details: Slo-1 alone in HEK293 cells, 250 ms depolarizing steps from holding potential -80 mV; for inhibition (block) of membrane currents: CTX 100 nM
Protocol: (§1) FIGS. 6A-B. Slo-1/BKB3 forms BK type II-like charybdotoxin—(CTX) insensitive channels. Slo-1 (A) or Slo-1+BK beta 3 (B) were expressed in HEK293 cells and membrane currents measured using the whole-cell voltage-clamp technique. […]. In contrast, membrane currents in cells co-expressing Slo-1 and BK beta 3 were TEA (5 mM) sensitive but CTX (100 nM) insensitive (FIG. 6B). Similar recordings were made from 4 cells expressing Slo-1 alone and 6 cells co-expressing Slo-1/BKB3. Scale bars represent 1 nA and 200 ms.

Slo-1/BKB3 = molecular target: T2, Slo-1/BKB3 (Homo sapiens, UniProt Q12791); experiment: Whole-cell voltage-clamp of membrane currents in HEK293 cells co-expressing Slo-1 and BK beta 3; format: cell-based; details: Slo-1 + BK beta 3 in HEK293 cells, 250 ms depolarizing steps from holding potential -80 mV; for sensitivity (block) of membrane currents: CTX 100 nM
T2 construct: expressed in transfected cells; host or cells: HEK293
Protocol: as §1

Slo-1 [2] = molecular target: T1, Slo-1; experiment: cell-based or functional assay

T1 sequence (Q12791 whole entry): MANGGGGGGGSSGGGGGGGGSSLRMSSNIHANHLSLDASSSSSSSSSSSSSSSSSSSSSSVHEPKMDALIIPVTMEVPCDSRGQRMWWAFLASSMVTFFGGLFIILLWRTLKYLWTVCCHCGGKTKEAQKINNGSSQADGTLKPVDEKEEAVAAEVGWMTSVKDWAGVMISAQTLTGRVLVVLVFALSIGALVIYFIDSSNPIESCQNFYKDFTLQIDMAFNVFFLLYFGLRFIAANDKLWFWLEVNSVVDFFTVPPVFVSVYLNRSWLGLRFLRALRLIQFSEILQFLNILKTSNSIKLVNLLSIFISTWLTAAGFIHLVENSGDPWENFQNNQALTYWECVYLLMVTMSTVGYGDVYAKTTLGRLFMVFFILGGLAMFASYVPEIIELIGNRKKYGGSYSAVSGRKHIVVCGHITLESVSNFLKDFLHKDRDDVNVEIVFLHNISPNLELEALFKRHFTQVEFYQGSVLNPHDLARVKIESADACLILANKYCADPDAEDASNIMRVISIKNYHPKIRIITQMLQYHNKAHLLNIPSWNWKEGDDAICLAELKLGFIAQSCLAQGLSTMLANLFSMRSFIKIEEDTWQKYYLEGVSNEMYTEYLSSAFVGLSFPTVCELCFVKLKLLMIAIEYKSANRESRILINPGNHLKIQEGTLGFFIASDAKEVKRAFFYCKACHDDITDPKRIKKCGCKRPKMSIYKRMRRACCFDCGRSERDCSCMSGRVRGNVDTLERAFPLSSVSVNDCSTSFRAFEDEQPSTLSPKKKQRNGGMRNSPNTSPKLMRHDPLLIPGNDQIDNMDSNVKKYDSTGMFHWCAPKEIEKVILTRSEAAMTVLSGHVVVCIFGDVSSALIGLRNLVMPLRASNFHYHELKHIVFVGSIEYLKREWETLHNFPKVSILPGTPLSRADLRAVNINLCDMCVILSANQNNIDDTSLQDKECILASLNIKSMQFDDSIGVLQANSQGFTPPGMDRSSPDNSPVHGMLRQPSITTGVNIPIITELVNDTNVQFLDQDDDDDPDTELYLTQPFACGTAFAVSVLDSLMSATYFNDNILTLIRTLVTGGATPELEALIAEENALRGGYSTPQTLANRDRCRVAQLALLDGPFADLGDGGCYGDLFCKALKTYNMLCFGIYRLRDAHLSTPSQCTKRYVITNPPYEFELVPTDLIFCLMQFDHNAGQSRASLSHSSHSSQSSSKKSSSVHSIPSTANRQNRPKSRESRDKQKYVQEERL
T2 sequence (Q12791 whole entry): as above
T2 sequence (Q86W47 whole entry W137E partner): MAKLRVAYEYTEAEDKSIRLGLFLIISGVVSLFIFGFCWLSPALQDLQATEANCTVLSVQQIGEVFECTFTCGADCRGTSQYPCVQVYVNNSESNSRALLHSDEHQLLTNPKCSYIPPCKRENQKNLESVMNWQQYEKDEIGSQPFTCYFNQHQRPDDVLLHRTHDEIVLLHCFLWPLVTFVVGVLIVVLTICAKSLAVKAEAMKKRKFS

**Q.** Which results are given for `CC[N+](CC)(CC)CC` [TEA]?
**A.** inhibition of membrane currents (Slo-1 [1]; TEA 5 mM): strongly inhibited; sensitivity of membrane currents (Slo-1/BKB3; TEA 5 mM): sensitive

**Q.** For human BK beta 3, which shift of the Slo-1 activation curve (V1/2 act), patch clamp, 50 uM free Ca2+ (Slo-1 [2]) is on record?
**A.** 15 mV

**Q.** Which “inhibition (block) of membrane currents” value (Slo-1 [1]) does the source give for charybdotoxin [CTX] here?
**A.** strongly inhibited

**Q.** What about the “inhibition (block) of membrane currents” value (Slo-1 [1]; listed as charybdotoxin) of the same compound?
**A.** almost completely blocked

**Q.** What about the “sensitivity (block) of membrane currents” value (Slo-1/BKB3) of the same compound?
**A.** insensitive

**Q.** And the “sensitivity (block) of membrane currents” value (Slo-1/BKB3; listed as charybdotoxin)?
**A.** virtually unblocked
